Experimental data as given in US20210221885A1 (NANJING LEADS BIOLABS, published 2021).

T1: Eu3+ cryptate labeled TIM3 (Cisbio kit, cat# 63ADK000CTLPEB) (human, UniProt Q8TDQ0 22-202, limits assumed, Eu3+ cryptate label)
T1 construct: Kit reagent; construct not described; also called Tim3-EuK protein; Tim3-EuK
T1 sequence (looked up): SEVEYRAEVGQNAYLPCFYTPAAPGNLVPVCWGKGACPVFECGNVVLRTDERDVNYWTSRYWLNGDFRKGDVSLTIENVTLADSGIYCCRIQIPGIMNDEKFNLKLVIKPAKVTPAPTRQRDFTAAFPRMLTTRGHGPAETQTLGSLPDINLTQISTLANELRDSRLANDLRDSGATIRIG

T2: Human TIM-3 protein (Acrobiosystems, Cat#TM3-H5229) (human, UniProt Q8TDQ0 22-200)
T2 construct: Bought protein; also called recombinant human TIM-3; TIM-3 recombinant protein
T2 sequence (looked up): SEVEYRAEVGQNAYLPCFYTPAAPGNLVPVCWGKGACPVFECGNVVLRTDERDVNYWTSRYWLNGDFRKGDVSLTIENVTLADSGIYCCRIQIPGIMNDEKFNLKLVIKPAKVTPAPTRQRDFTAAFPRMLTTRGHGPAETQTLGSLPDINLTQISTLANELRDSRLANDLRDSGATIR

T3: human TIM-3 stably expressed on CHO-K1 cells (human, UniProt Q8TDQ0 22-301)
T3 construct: whole, on cells; also called CHO-K1-TIM-3; cell surface TIM-3
T3 sequence (looked up): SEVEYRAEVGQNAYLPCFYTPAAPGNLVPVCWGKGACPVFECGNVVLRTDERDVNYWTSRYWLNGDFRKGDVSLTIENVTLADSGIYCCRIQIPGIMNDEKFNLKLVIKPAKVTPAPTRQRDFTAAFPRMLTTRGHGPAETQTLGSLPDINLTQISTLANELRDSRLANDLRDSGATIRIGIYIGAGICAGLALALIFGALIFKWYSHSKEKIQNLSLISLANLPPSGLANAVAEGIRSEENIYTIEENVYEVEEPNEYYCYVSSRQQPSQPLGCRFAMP

T4: Human TIM-1 (Sino biological, Cat#11051-HNCH) (human, UniProt Q96D42 21-295, limits assumed)
T4 construct: Bought protein; construct not described
T4 sequence (looked up): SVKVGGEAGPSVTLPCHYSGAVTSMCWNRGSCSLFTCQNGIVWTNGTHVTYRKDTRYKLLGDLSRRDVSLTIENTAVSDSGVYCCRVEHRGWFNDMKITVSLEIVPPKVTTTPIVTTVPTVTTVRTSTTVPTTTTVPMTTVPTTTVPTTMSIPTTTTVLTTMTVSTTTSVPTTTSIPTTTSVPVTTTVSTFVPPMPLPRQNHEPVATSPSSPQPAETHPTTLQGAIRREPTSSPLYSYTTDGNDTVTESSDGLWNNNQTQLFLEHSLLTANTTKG

T5: Human TIM-4 (Sino biological, Cat#12161-H08H) (human, UniProt Q96H15 25-315)
T5 construct: Bought protein; construct not described
T5 sequence (looked up): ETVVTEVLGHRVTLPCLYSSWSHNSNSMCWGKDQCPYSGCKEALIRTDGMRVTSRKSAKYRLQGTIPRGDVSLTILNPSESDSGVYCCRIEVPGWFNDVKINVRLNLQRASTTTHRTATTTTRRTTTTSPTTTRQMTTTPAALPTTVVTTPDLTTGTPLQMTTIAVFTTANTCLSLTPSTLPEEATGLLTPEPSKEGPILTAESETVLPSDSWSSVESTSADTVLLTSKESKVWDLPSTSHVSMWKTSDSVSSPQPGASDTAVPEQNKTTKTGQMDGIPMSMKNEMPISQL


Experiments:
[1] = target: T1, Eu3+ cryptate labeled TIM3 (Cisbio kit, …); experiment: HTRF blocking assay (Cisbio kit), antibody added to a mixture of Tim3-EuK and Tag-Gal9; blocked ligand galectin-9; the unit is that of the concentration axis
Procedure: The resultant mixture was incubated for 1 h at room temperature and then the fluorescence emission was read.

[2] = target: T2, Human TIM-3 protein (Acrobiosystems, …); experiment: ELISA, human TIM-3 coated at 1 ug/mL, detection with peroxidase-labeled anti-human IgG, OD450-620
Procedure: (§1) An ELISA assay was used for determination of the relative binding activity of antibodies to recombinant human TIM-3.
(§2) Human TIM-3 protein (Acrobiosystems, Cat#TM3-H5229) in carbonate buffer (pH 9.6, 1.59 g sodium carbonate and 2.93 g sodium bicarbonate dissolved in 1L water) was immobilized onto 96-well plates at 1μg/mL by incubation overnight at 4° C. The plates were then blocked with 1% BSA in PBS for one hour at 37° C. After blocking, the plates were washed three times with PBST (PBS containing 0.05% Tween20). […] After binding, the plates were washed three times with PBST, incubated for one hour at 37° C. with peroxidase-labeled donkey anti-human IgG (Jackson Immuno Research) diluted 1/15,000 in binding buffer, washed again, developed with TMB and stopped with 1M H₂SO₄.
(§3) The absorbance at 450 nm-620 nm was determined.

[3] = target: T2, Human TIM-3 protein (Acrobiosystems, …); experiment: ELISA, human TIM-3 coated at 1 ug/mL, detection with peroxidase-labeled anti-human IgG, OD450-620; the unit is that of the concentration axis
Procedure: as §1, §2, §3

[4] = target: T3, human TIM-3 stably expressed on CHO-K1 …; experiment: flow cytometry on CHO-K1-TIM-3 cells, detection with PE anti-human IgG Fc, MFI; the unit is that of the concentration axis
Procedure: Anti-TIM-3 antibodies were tested for their binding ability to human TIM-3 stably expressed on CHO-K1 cells. A Chinese hamster ovary epithelial CHO-K1 cell line (ATCC, cat# CCL-61) was maintained in F-12K medium containing 10% FBS in a humidified incubator with 5% CO₂ at 37° C. Polyethylenimine (MW25K, 23966-2, Polyscience) was diluted to 1 mg/mL, and added to and incubated with pcDNA3.1 vector containing TIM-3 cDNA (NP_116171.3) at 37° C. for 10 mins. The mixture was added to and incubated with cell culture for 3hrs for DNA transfection.
The anti-TIM-3 antibodies were serially diluted in PBS buffer with 0.5% BSA. The antibodies were added to and incubated with CHO-K1-TIM-3 cells at 4° C. for 30min. The cells were pelleted (3 minutes, 600×g), washed once using PBS buffer with 0.5% BSA and re-pelleted. Then, the cells were incubated with a PE conjugated AffiniPure Goat Anti-human IgG, Fcγ Fragment Specific (Jackson ImmunoResearch Cat#109-116-098) diluted at 1:100 at 4 ° C. for 30mins. Cells were washed twice as described above, resuspended in PBS buffer. The cells were then sent to the […] flow cytometer (BD Bioscience) for binding activity analysis. The EC₅₀ values were calculated.

[5] = target: T2, Human TIM-3 protein (Acrobiosystems, …); experiment: SPR, Biacore T200; antibody captured on anti-human IgG (Fc), human TIM-3 injected at 1.56-50 nM; 1:1 Langmuir fit
Procedure: The kinetic binding activity of anti-TIM-3 antibodies to human TIM-3 (Acrobiosystems, Cat#TM3-H5229) was measured by surface plasmon resonance using a Biacore® T200 system (Biacore, GE Healthcare).
Approximately 6800 RU of Anti-Human IgG (Fc) antibody (GE Catalog # BR-1008-39) was immobilized via amine coupling chemistry onto a CMS sensor chip. […] HBS-EP+ buffer was used as the running buffer. Varying concentrations of human TIM-3 protein, ranging from 1.56 nM to 50 nM, were injected over the antibody surfaces. Following each injection cycle, the CMS chip surface was regenerated using injection of 3M magnesium chloride solution. Background subtraction binding sensorgrams were used for analyzing the rate of association Ka and dissociation Kd, and the equilibrium dissociation constant KD. The resulting data sets were fitted with a 1:1 Langmuir Binding Model using the Biacore T200 evaluation software.

[6] = target: T4, Human TIM-1 (Sino biological, …); experiment: ELISA, human TIM-1 coated, serially diluted antibody
Procedure: (§4) After blocking, the plates were washed three times with PBST (PBS containing 0.05% Tween20). […] After binding, the plates were washed three times with PBST, incubated for one hour at 37° C. with peroxidase-labeled donkey anti-human IgG (Jackson Immuno Research) diluted 1/15,000 in binding buffer, washed again, developed with TMB and stopped with 1M H₂SO₄.
as §3

[7] = target: T5, Human TIM-4 (Sino biological, …); experiment: ELISA, human TIM-4 coated, serially diluted antibody
Procedure: as §4, §3

[8] = target: C1q (Calbiochem, Cat#204876) (UniProt P02745 23-245; P02746 28-253; P02747 29-245); experiment: ELISA, antibody coated, C1q added, anti-C1q-HRP detection
Sequence of C1q (Calbiochem, Cat#204876) (P02745 23-245, chain 1 of 3): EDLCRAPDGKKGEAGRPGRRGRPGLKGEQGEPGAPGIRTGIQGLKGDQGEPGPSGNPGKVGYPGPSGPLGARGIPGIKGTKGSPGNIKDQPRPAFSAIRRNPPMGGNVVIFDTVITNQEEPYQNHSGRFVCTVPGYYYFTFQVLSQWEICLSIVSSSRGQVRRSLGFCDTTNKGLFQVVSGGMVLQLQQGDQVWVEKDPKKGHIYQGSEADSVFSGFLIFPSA
Sequence of C1q (Calbiochem, Cat#204876) (P02746 28-253, chain 2 of 3): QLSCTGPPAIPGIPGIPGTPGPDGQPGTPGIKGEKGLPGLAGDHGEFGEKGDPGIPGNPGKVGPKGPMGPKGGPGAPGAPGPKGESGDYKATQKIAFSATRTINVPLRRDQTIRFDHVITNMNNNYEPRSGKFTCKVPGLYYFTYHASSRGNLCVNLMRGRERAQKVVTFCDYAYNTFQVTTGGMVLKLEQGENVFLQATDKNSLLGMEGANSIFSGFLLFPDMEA
Sequence of C1q (Calbiochem, Cat#204876) (P02747 29-245, chain 3 of 3): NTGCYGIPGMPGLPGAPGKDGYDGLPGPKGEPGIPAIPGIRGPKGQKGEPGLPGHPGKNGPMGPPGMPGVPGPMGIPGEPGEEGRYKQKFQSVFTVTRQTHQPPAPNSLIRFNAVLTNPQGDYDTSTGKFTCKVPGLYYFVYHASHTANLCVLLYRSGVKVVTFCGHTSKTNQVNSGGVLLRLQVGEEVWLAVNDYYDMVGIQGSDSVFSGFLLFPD

IC50 [1] | EC50 [3] | Kd [5] | koff [5] | kon [5] | Binder | also measured
4.73 nM |  |  |  |  | anti-TIM-3 antibody TIM3-4G7 (antibody, human IgG4 S228P, kappa, V domains shown, Full-length IgG) VH: EVQLVETGGGLVQPGGSLRLSCAASGFTFSSYAMSWVRQAPGKGLEWVSGISGSGGSTYYADSVKGRFTTSRDNSENTLYLQMNSLRAEDTAVYYCAGSYYDDAFDIWGQGTLVTVSS VL: ETTLTQSPATLSLSPGDTATLSCRASQSVTKDLVAWYQQRPGQAPRLLLYGASSRATGIPDRFSGSGSGTDFTLTISRLEPEDFAVYYCQQYGRSPLTFGGGTKVEIKR | EC50 (read off the curve) [2]: 2 to 3 nM
5.87 nM |  |  |  |  | ABTIM3 analog (antibody, human IgG4 S228P, kappa, V domains shown) VH: QVQLVQSGAEVKKPGASVKVSCKASGYTFTSYNMHWVRQAPGQGLEWIGDIYPGSGDTSYNQKFKGRATMTADKSTSTVYMELSSLRSEDTAVYYCARVGGAFPMDYWGQGTLVTVSS VL: DIVLTQSPDSLAVSLGERATINCRASESVEYYGTSLMQWYQQKPGQPPKLLIYAASNVESGVPDRFSGSGSGTDFTLTISSLQAEDVAVYYCQQSRKDPSTFGGGTKVEIKR | EC50 (read off the curve) [2]: ~0.08 nM; EC50 [4]: 0.543 nM
 |  | 2.05 nM | 0.000415 s⁻¹ | 202000 M⁻¹ s⁻¹ | anti-TIM-3 antibody TIM3-6.10 (antibody, human IgG1, lambda, L234A L235A, V domains shown) VH: QVQLVQSGAEVKKPGSSVKVSCKASGGTFSSYTIYWVRQAPGQGLEWMGSIIPILGTANYAQKFQGRVTITADESTSTAYMELSSLRSEDTAVYYCASASHTIWGQGTLVTVSS VL: QAVVTQEPSLTVSPGGTVTLTCASSTGAVTSGNTPNWFQQRPGQAPRALIYTTSNRHSWTPARFSGSLLGGKAALTLSGVQPEDEADYYCLLYYGGAWVFGGGTKLTVLG | 

More lines, now with the values behind:

Binder | IC50 [1] | EC50 [3] | Kd [5] | koff [5] | kon [5] | also measured
anti-TIM-3 antibody TIM3-11 (antibody, human IgG4 S228P, lambda, V domains shown, Full-length IgG) VH: QVQLQQSGPGLVKPSQTLSLTCAISGDSVSSNSAAWNWIRQSPSRGLEWLGRTYYRSKWYNDYAVSVKSRITINPDTSKNQFSLQLNSVTPEDTAVYYCARDQAAGFPQPYIYGMDVWGKGTMVTVSS VL: LPVLTQPPSVSKGLRQTATLTCTGNSNNVGNQGAAWLQQHQGHPPKLLTYRTNNRPSGISERFSASRSGNTASLTITGLQPEDEADYYCSGWDSSLNEGVFGGGTKLTVLG | 3.56 nM | 5.08 nM |  |  |  | 
anti-TIM-3 antibody TIM3-6.11 (antibody, human IgG1, lambda, L234A L235A, V domains shown) VH: QVQLVQSGAEVKKPGSSVKVSCKASGGTFSSYTIYWVRQAPGQGLEWMGSIIPILGTANYAQKFQGRVTITADESTSTAYMELSSLRSEDTAVYYCASASHTIWGQGTLVTVSS VL: QAVVTQEPSLTVSPGGTVTLTCASSTGAVTSGYTPNWFQQRPGQAPRALIYTTSNRHSWTPARFSGSLLGGKAALTLSGVQPEDEADYYCLLYYGGAWVFGGGTKLTVLG |  |  | 1.5 nM | 0.000344 s⁻¹ | 230000 M⁻¹ s⁻¹ | 
anti-TIM-3 antibody TIM3-6 (antibody, human IgG4 S228P, lambda, V domains shown, Full-length IgG expressed in CHO-S cells) VH: QVQLVQSGAEVKKPGSSVKVSCKASGGTFSSYTISWVRQAPGQGLEWMGRIIPILGTANYAQKFQGRVTITADESTSTAYMELSSLRSEDTAVYYCASASHTIWGKGTLVTVSS VL: QAVVTQEPSLTVSPGGTVTLTCASSTGAVTSGYSPNWFQQRPGQAPRALIYTTSNRHSWTPARFSGSLLGGKAALTLSGVQPEDEADYYCLLYYGGAWVFGGGTKLTVLG | 1.88 nM | 9.24 nM |  |  |  | binding result [6]: no binding; binding result [7]: no binding
anti-TIM-3 antibody TIM3-6.12 (antibody, human IgG1, lambda, L234A L235A, In the internalization assay the antibody carried pHAb amine reactive dye) heavy: not shown light: QAVVTQEPSLTVSPGGTVTLTCASSTGAVTSGYTPNWFQQRPGQAPRALIYTTNNRHSWTPARFSGSLLGGKAALTLSGVQPEDEADYYCLLYYGGAWVFGGGTKLTVLGQPKAAPSVTLFPPSSEELQANKATLVCLISDFYPGAVTVAWKADSSPVKAGVETTTPSKQSNNKYAASSYLSLTPEQWKSHRSYSCQVTHEGSTVEKTVAPTEC |  | 0.0915 nM | 1.66 nM | 0.00037 s⁻¹ | 223000 M⁻¹ s⁻¹ | binding result [8]: no binding; EC50 [4]: 0.746 nM
